From patent US20030203372A1, “Analysis method” (priority 2000, published 2003)

Tested on: primary human cell cultures (11 cell types)
Assay: Custom gene array, 11 human cell types in normoxia or hypoxia for 6 hr and 18 hr;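 for mRNA expression level, #1 HY 18 hr: cell type #1 is adipocyte from subcutaneous adult adipose tissue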;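 for mRNA expression level, #1 HY 6 hr: cell type #1 is adipocyte from subcutaneous adult adipose tissue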;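 for mRNA expression level, #1 NO: cell type #1 is adipocyte from subcutaneous adult adipose tissue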;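 for mRNA expression level, #2 HY 18 hr: cell type #2 is fetal cardiomyocyte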;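 for mRNA expression level, #2 HY 6 hr: cell type #2 is fetal cardiomyocyte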;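 for mRNA expression level, #2 NO: cell type #2 is fetal cardiomyocyte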;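 for mRNA expression level, #3 HY 6 hr: cell type #3 is human umbilical vein endothelial cells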;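 for mRNA expression level, #3 NO: cell type #3 is human umbilical vein endothelial cells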;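 for mRNA expression level, #4 HY 18 hr: cell type #4 is adult dermal fibroblast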;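 for mRNA expression level, #4 HY 6 hr: cell type #4 is adult dermal fibroblast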;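 for mRNA expression level, #4 NO: cell type #4 is adult dermal fibroblast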;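 for mRNA expression level, #6 HY 6 hr: cell type #6 is blood-derived macrophage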;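 for mRNA expression level, #6 NO: cell type #6 is blood-derived macrophage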
Type: cell-based
Details: for mRNA expression level, #1 HY 6 hr: cell type #1, hypoxia 6 hr; for mRNA expression level, #1 HY 18 hr: cell type #1, hypoxia 18 hr; for mRNA expression level, #1 NO: cell type #1, normoxia; for mRNA expression level, #2 HY 6 hr: cell type #2, hypoxia 6 hr; for mRNA expression level, #2 HY 18 hr: cell type #2, hypoxia 18 hr; for mRNA expression level, #2 NO: cell type #2, normoxia; for mRNA expression level, #3 HY 6 hr: cell type #3, hypoxia 6 hr; for mRNA expression level, #3 HY 18 hr: cell type #3, hypoxia 18 hr; for mRNA expression level, #3 NO: cell type #3, normoxia; for mRNA expression level, #4 HY 6 hr: cell type #4, hypoxia 6 hr; for mRNA expression level, #4 HY 18 hr: cell type #4, hypoxia 18 hr; for mRNA expression level, #4 NO: cell type #4, normoxia; for mRNA expression level, #5 HY 6 hr: cell type #5, hypoxia 6 hr; for mRNA expression level, #5 NO: cell type #5, normoxia; for mRNA expression level, #6 HY 6 hr: cell type #6, hypoxia 6 hr; for #6 HY 18 hr (mRNA expression level): cell type #6, hypoxia 18 hr; for mRNA expression level, #6 NO: cell type #6, normoxia; for #7 HY 6 hr (mRNA expression level): cell type #7, hypoxia 6 hr; for #7 HY 18 hr (mRNA expression level): cell type #7, hypoxia 18 hr; for #7 NO (mRNA expression level): cell type #7, normoxia; for #8 HY 6 hr (mRNA expression level): cell type #8, hypoxia 6 hr; for #8 HY 18 hr (mRNA expression level): cell type #8, hypoxia 18 hr; for #8 NO (mRNA expression level): cell type #8, normoxia; for #9 HY 6 hr (mRNA expression level): cell type #9, hypoxia 6 hr; for #9 HY 18 hr (mRNA expression level): cell type #9, hypoxia 18 hr; for #9 NO (mRNA expression level): cell type #9, normoxia; for #10 HY 6 hr (mRNA expression level): cell type #10, hypoxia 6 hr; for #10 HY 18 hr (mRNA expression level): cell type #10, hypoxia 18 hr; for #10 NO (mRNA expression level): cell type #10, normoxia; for #11 HY 6 hr (mRNA expression level): cell type #11, hypoxia 6 hr; for #11 HY 18 hr (mRNA expression level): cell type #11, hypoxia 18 hr; for #11 NO (mRNA expression level): cell type #11, normoxia
Description: Equivalent cultures of non-immortalized, non-transformed primary human cells of 10 distinct types, were cultured in either normoxia or were exposed to hypoxia for 6 hr and 18 hr, and gene expression changes were determined. […] Moreover, unlike the vast majority of information in the public domain relating to genes responsive to hypoxia, all of these cells were human and were cultured without any modifications following isolation from the human donors.
A non-primary cell type (#9) was used to represent neurons, since primary human neurons are difficult to source. Therefore a total of 11 cell types are compared. It should be noted that RNA from hepatocytes at the […] timepoint of hypoxia was not available for this work.
Each RNA sample was hybridised to duplicate or triplicate arrays, to ensure reproducible data, and was analysed using GeneSpring software. Data from replicate arrays were merged during analysis to generate mean values. Data normalisation was achieved per-array using the aforementioned list of control genes, such that differences in RNA labelling or hybridization due to experimental variation were corrected by referencing each gene to the mean value of the reference genes on the same array. Also, for each gene, expression values were obtained which represent the value in each experimental condition (e.g. macrophages 6 hr hypoxia) as compared to the median of value of that gene throughout the full range of experimental conditions (i.e. from all cell types). […] This is common in microarray data analysis.

[1] = cell type #1, HY (hypoxia) 6 hr
[2] = cell type #1, HY (hypoxia) 18 hr
[3] = cell type #2, HY (hypoxia) 6 hr
[4] = cell type #2, HY (hypoxia) 18 hr
[5] = cell type #3, HY (hypoxia) 6 hr
[6] = cell type #3, HY (hypoxia) 18 hr
[7] = cell type #4, HY (hypoxia) 6 hr
[8] = cell type #4, HY (hypoxia) 18 hr
[9] = cell type #5, HY (hypoxia) 6 hr
[10] = cell type #6, HY (hypoxia) 6 hr
[11] = hypoxia/normoxia induction ratio, 18 hr monocyte

B1: p1G21 (nucleic acid, listed as Homo Sapiens)
DNA: TTTTACATACTAGATTTATTAAAGTGACCATAAGTGCCGAAGCGGTTTTCTAATGGAAAGCAGACTGGATTCACAACACAGAAGCAGAATTGGTGGAACAGGCTTTCGGGAACTTTCTTCCCCTGGTCACACGGCAGATCGGTCCCCAAGGACAGGTGCTCAGCCAGGACTTTTGCTTTAAGAAGGATTTGTCTNGAGAAAGGACTAGAGAGAAATCCAGCTCAGATGTATTGCTCATTCCTCTTCAGAAGGACTGGGTNGGAATGGAGCAGGGGCTAGAGGAATCTGGAAGCTAATTCTTTTAGGCTTTTTCCAACAGAGGGAAGCAGAGGGACTTCTGGGTCTTGAAGTTTGGAGCTTACGGAGGCGA
modifications: misc_feature 195, 260: n = A,T,C or G
- HIGHEST FOLD CHANGE IN HYPOXIA (hr hypoxia + cell type) (DOWN, 6 hr macrophage): 1.85 DOWN (6 hr macrophage) ^ fold
- mRNA expression level [1]: 1.01
- mRNA expression level [2]: 0.55
- mRNA expression level (cell type #1, NO (normoxia)): 0.99
- mRNA expression level [3]: 1.48
- mRNA expression level [4]: 1.10
- mRNA expression level (cell type #2, NO (normoxia)): 2.02
- mRNA expression level [5]: 1.13
- mRNA expression level [6]: 0.80
- mRNA expression level (cell type #3, NO (normoxia)): 1.54
- mRNA expression level [7]: 0.65
- mRNA expression level [8]: 0.60
- mRNA expression level (cell type #4, NO (normoxia)): 0.78
- mRNA expression level [9]: 1.35
- mRNA expression level (cell type #5, NO (normoxia)): 0.72
- mRNA expression level [10]: 0.69
- mRNA expression level (cell type #6, NO (normoxia)): 1.28

B2: p1F1 (nucleic acid, listed as Homo Sapiens)
DNA: TTTGTGTGGTCTTTTTTTTTTTTTCTCAGTGTTTTCAATTCCTCCTTGGTTGAATCCATGGATGCAAAACCCACAGATATGAAGGGCTGGCTATATATGCATTGATGATTGTCCTATTATATTAGTTATAAAGTGTCATTTAATATGTAGTGAAAGTTATGGTACAGTGGAAAGAGTAGTTGAAAACATAAACATTTGGGCCTTTCAAGAAAGGTAGCTTGGTGAAGTTTTTCACCTTCAAACTATGTCCCAGTCAGGG
- mRNA expression level, #1 HY 6 hr: 0.33
- mRNA expression level, #1 HY 18 hr: 0.52
- mRNA expression level, #1 NO: 0.58
- mRNA expression level, #2 HY 6 hr: 1.19
- mRNA expression level, #2 HY 18 hr: 1.14
- mRNA expression level, #2 NO: 1.42
- mRNA expression level, #3 HY 6 hr: 1.70
- mRNA expression level, #3 HY 18 hr: 1.49
- mRNA expression level, #3 NO: 1.64
- mRNA expression level, #4 HY 6 hr: 0.63
- mRNA expression level, #4 HY 18 hr: 0.54
- mRNA expression level, #4 NO: 0.95
- mRNA expression level, #5 HY 6 hr: 0.50
- mRNA expression level, #5 NO: 0.37
- mRNA expression level, #6 HY 6 hr: 0.61
- #6 HY 18 hr (mRNA expression level): 0.51
- mRNA expression level, #6 NO: 0.62
- #7 HY 6 hr (mRNA expression level): 0.90
- #7 HY 18 hr (mRNA expression level): 0.30
- #7 NO (mRNA expression level): 0.91
- #8 HY 6 hr (mRNA expression level): 0.53
- #8 HY 18 hr (mRNA expression level): 0.66
- #8 NO (mRNA expression level): 0.34
- #9 HY 6 hr (mRNA expression level): 1.23
- #9 HY 18 hr (mRNA expression level): 1.06
- #9 NO (mRNA expression level): 1.66
- #10 HY 6 hr (mRNA expression level): 1.58
- #10 HY 18 hr (mRNA expression level): 1.03
- #10 NO (mRNA expression level): 1.46
- #11 HY 6 hr (mRNA expression level): 1.24
- #11 HY 18 hr (mRNA expression level): 1.06
- #11 NO (mRNA expression level): 1.25
- HIGHEST FOLD CHANGE IN HYPOXIA (hr hypoxia + cell type) [11]: 1.96 (18 hr monocyte) fold

B3: p1G22 (nucleic acid, listed as Homo Sapiens)
DNA: TTTTTTTTTGTTTCTGTTTTGTTTTTTCTTTTGCACTGATATATACCATACCAACATTGCAAGATGCAAAGTGTGGAAACTGGAGTTTAAATAAAATTACAAGGCAAAACTACCCCATCCCAAGTGCGGTTGCTGTACATATCTACAGTACAATTTTTGGAATGTATTGCCATTTAAGAACATAGAAACTTTCTACAGACAATTTCACATACAGAATACGTACACCTTTTAGAAAAAAAGGCAAATATTTATCTTACAGAGAGCATTGTATTTTACATTTGCCTGCACGTTTCTTTTTTCTGTTTCTTTTCTTTCTTTCTTTTTTTACATACTAGGATTTATTAAAGTGACCATAAGGTGCCCGANGCGGGTTTTCTAATGGGNAAGCAGACTGGGNTTCACCAACACAGGNGCAGGATTGGGTGGGACAGGCTTTCGGGGACCTTTCTTCCCCTGGGNCACACGGGCAGATCCGGTCCCCAAGGGCAGGNTGTTCAGCCNGGGGCTTTTNCTTTT
modifications: misc_feature 366, 384, 397, 412, 459, 491, 501, 511: n = A,T,C or G
- HIGHEST FOLD CHANGE IN HYPOXIA (hr hypoxia + cell type) (DOWN, 18 hr mam epithelial): 2.38 DOWN (18 hr mam epithelial) ^ fold
- mRNA expression level [1]: 0.78
- mRNA expression level [2]: 0.72
- mRNA expression level (cell type #1, NO (normoxia)): 1.14
- mRNA expression level [3]: 2.67
- mRNA expression level [4]: 1.41
- mRNA expression level (cell type #2, NO (normoxia)): 2.75
- mRNA expression level [5]: 12.7
- mRNA expression level [6]: 8.79
- mRNA expression level (cell type #3, NO (normoxia)): 8.35
- mRNA expression level [7]: 1.21
- mRNA expression level [8]: 1.01
- mRNA expression level (cell type #4, NO (normoxia)): 1.35
- mRNA expression level [9]: 0.70
- mRNA expression level (cell type #5, NO (normoxia)): 0.59
- mRNA expression level [10]: 0.63
- mRNA expression level (cell type #6, NO (normoxia)): 0.77

B4: p1E9 (nucleic acid, listed as Homo Sapiens)
DNA: AGACCCCCCAGGGTGCCTCCGAGAGCTGCCTCACAGAGGACTCCGACCAGGGAGACCTTCCATCCTCCTCCACCTGTTCCACCCAGAGGACGCTGATTCCACCTCCTAAAACCTGCCTACTTCAGGACTTTAAGACTCACAGTCTTCAGCCTGTTAATGATGTCTTCATGTTGAGTTTTATAGCATGACTGTTGACCTTAAGATCCATTCTCATTGCTGATAATGCTGCAGCCCTGCTGGTTTGGGCTTGCTCGAAGATTTTATTAAGGCACGAAGAAGTGAAAAACTAAGGGCTTCATTCACCATCACCAAGTATATCGAACCATATACTTGTTTGCCAAAAGGGTGGAAGGACTTTAATTCGGAAATACTTTACCTCTTAATTTGGCCATATTCAGGAGGCCTAAAAGGATTGATCCNTAATGTTATTTCACCGTGGTTTTTATTGAATGG
modifications: misc_feature 420: n = A,T,C or G
- mRNA expression level, #1 HY 6 hr: 0.89
- mRNA expression level, #1 HY 18 hr: 1.48
- mRNA expression level, #1 NO: 1.54
- mRNA expression level, #2 HY 6 hr: 1.80
- mRNA expression level, #2 HY 18 hr: 1.53
- mRNA expression level, #2 NO: 1.18
- mRNA expression level, #3 HY 6 hr: 0.82
- mRNA expression level, #3 HY 18 hr: 0.60
- mRNA expression level, #3 NO: 0.68
- mRNA expression level, #4 HY 6 hr: 0.64
- mRNA expression level, #4 HY 18 hr: 0.73
- mRNA expression level, #4 NO: 0.60
- mRNA expression level, #5 HY 6 hr: 1.62
- mRNA expression level, #5 NO: 0.92
- mRNA expression level, #6 HY 6 hr: 3.97
- #6 HY 18 hr (mRNA expression level): 6.19
- mRNA expression level, #6 NO: 4.20
- #7 HY 6 hr (mRNA expression level): 0.42
- #7 HY 18 hr (mRNA expression level): 0.18
- #7 NO (mRNA expression level): 0.25
- #8 HY 6 hr (mRNA expression level): 3.63
- #8 HY 18 hr (mRNA expression level): 5.01
- #8 NO (mRNA expression level): 2.33
- #9 HY 6 hr (mRNA expression level): 0.80
- #9 HY 18 hr (mRNA expression level): 0.85
- #9 NO (mRNA expression level): 0.93
- #10 HY 6 hr (mRNA expression level): 0.61
- #10 HY 18 hr (mRNA expression level): 0.61
- #10 NO (mRNA expression level): 0.57
- #11 HY 6 hr (mRNA expression level): 1.37
- #11 HY 18 hr (mRNA expression level): 1.17
- #11 NO (mRNA expression level): 1.58
- HIGHEST FOLD CHANGE IN HYPOXIA (hr hypoxia + cell type) [11]: 2.15 (18 hr monocyte) fold
